# Measurements taken from paper PMC8668187.
# Several values for one entry are separate records, joined by “and”; a condition that tells them apart may be missing. Identical values can stand only once.
# What was measured:
# [1] = molecular target: glutamine synthetase GmGSβ2 from Glycine max (Glycine max); assay: SEC-MALS; Superdex 200 10/300 GL with MALS and QELS; 50 mM KPi pH 7.0, 100 mM NaCl, 1 mM β-mercaptoethanol, 0.05 % NaN3; room temperature (~23 °C); self-association of the GS
# [2] = molecular target: glutamine synthetase CsGSIb from Camellia sinensis, wild type (Camellia sinensis); assay: as above
# [3] = molecular target: glutamine synthetase CsGSIb from Camellia sinensis, wild type (Camellia sinensis); assay: AUC; sedimentation velocity, 0.1/0.25/0.5 mg/mL, 50 mM Tris-HCl pH 7.4, 100 mM NaCl, 1.5 mM β-mercaptoethanol, rotor at 20 °C (results: room temperature); global fit; decamer to two pentamers
# [4] = molecular target: glutamine synthetase CsGSIb from Camellia sinensis, wild type (Camellia sinensis)
# [5] = molecular target: CsGSIb I143L mutant (Camellia sinensis)
# [6] = molecular target: CsGSIb I143L mutant (Camellia sinensis); assay: SEC-MALS; Superdex 200 10/300 GL with MALS and QELS; 50 mM KPi pH 7.0, 100 mM NaCl, 1 mM β-mercaptoethanol, 0.05 % NaN3; room temperature (~23 °C); self-association of the GS
# [7] = molecular target: CsGSIb I143L mutant (Camellia sinensis); assay: AUC; sedimentation velocity, 0.1/0.25/0.5 mg/mL, 50 mM Tris-HCl pH 7.4, 100 mM NaCl, 1.5 mM β-mercaptoethanol, rotor at 20 °C (results: room temperature); global fit; decamer to two pentamers
# [8] = molecular target: CsGSIb EVK138DIQ mutant (Camellia sinensis)
# [9] = molecular target: CsGSIb EVK138DIQ mutant (Camellia sinensis); assay: SEC-MALS; Superdex 200 10/300 GL with MALS and QELS; 50 mM KPi pH 7.0, 100 mM NaCl, 1 mM β-mercaptoethanol, 0.05 % NaN3; room temperature (~23 °C); self-association of the GS
# [10] = molecular target: CsGSIb EVK138DIQ mutant (Camellia sinensis); assay: AUC; sedimentation velocity, 0.1/0.25/0.5 mg/mL, 50 mM Tris-HCl pH 7.4, 100 mM NaCl, 1.5 mM β-mercaptoethanol, rotor at 20 °C (results: room temperature); global fit; decamer to two pentamers
substance,measurement,setting,value
glutamine synthetase GmGSβ2 from Glycine max (enzyme),stoichiometry N,[1],10
"glutamine synthetase CsGSIb from Camellia sinensis, wild type (enzyme)",fraction decameric,[2],18%
same,fraction pentameric,[2],82%
same,stoichiometry N,[2],5 and 10
same,Kd,[3],270 nM
same,stoichiometry N,[3],10 and 5
same,glutamine synthetase activity on raising the CsGSIb concentration from 1 μM to 5 μM (monomer),[4],30 fold
CsGSIb I143L mutant (enzyme),"glutamine synthetase activity, increase over wild-type CsGSIb (1 μM monomer enzyme, 30 min, 37 °C)",[5],76 fold
same,fraction decameric,[6],> 95%
same,Kd,[7],10 nM
CsGSIb EVK138DIQ mutant (enzyme),"glutamine synthetase activity, increase over wild-type CsGSIb (1 μM monomer enzyme, 30 min, 37 °C)",[8],64 fold
same,fraction decameric,[9],72%
same,Kd,[10],40 nM
